Results reported in US20200297760A1, “COMPOSITIONS AND METHODS FOR REDUCING IMMUNE RESPONSES AGAINST CHIMERIC ANTIGEN RECEPTORS” (Juno Therapeutics, Inc., priority 2015, published 2020).

Assays:
HLA-A*02:01 (human) = test: REVEAL MHC-peptide binding assay, recombinant HLA; settings: remark: other sources report otherwise
HLA-A*03:01 (human) = test: REVEAL MHC-peptide binding assay, recombinant HLA; settings: remark: other sources report otherwise

Row | Binder | In Vitro Score (% of positive control peptide) (HLA-A*02:01 (human)) | In Vitro Score (% of positive control peptide) (HLA-A*03:01 (human))
1 | VAFIIFWVK | 0.7 | 1.5
2 | IFWVKRGHK | 2.2 | –
3 | WVKRGHKKL | 3.9 | 1.4
4 | IIFWVKRGA | 85.9 | 42.9
5 | IFWVKRGAK | 13.8 | 22
6 | WVKRGAKKL | 4.7 | 4.1
7 | IFWVKRGNK | 3.5 | –
8 | WVKRGNKKL | 2.4 | 0.9
9 | IIFWVQRGA | 95.3 | 2.7
10 | IFWVQRGAK | 11.7 | 17
11 | IFWVQRGNK | 16.1 | 23.2
12 | WVQRGNKKL | 4.3 | 1.5
13 | VAFIIFWVS | 70.6 | 0.7
14 | AFIIFWVSR | 4.5 | 0.3
15 | IIFWVSRGR | 2.6 | 25.3
16 | IFWVSRGRK | 1.3 | 39.2
17 | AFIIFWVHR | 0.3 | 0.3
18 | FIIFWVHRG | 37.3 | 0
19 | IIFWVHRGR | 4.7 | 30.1
20 | IFWVHRGRK | 7.1 | 37.8
21 | AFIIFWVAR | 2.2 | 0.5
22 | WVQRGRKKL | – | 4.9
